Data reported in the nanobody polyreactivity screen of Harvey et al. (2022).

Assay: yeast display, Sf9 membrane polyspecificity reagent, FACS + sequencing; frameworks hold sequencing errors
Procedure, shortened: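 Polyreactivity labels are assigned by the sorting gate from which each nanobody was recovered. The gates were low and high (top ~1%), set on anti-HA fluorescence for expression and streptavidin fluorescence for reagent binding. Before sorting, galactose-induced (36–48 hours) yeast display cells were stained for 1 hour at 4 °C with 10% biotinylated, detergent-solubilized Sf9 membrane reagent.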

| Sequence | polyreactivity (PSR sort gate) |
| --- | --- |
| QVQLVESGGGIVQAGGSLRLSCAASGFTISRNTMGWYRQAPGKEREFVARISAYGGSTYYADSVKGRFTISRDNAKNSVYLQMNSLKPVDTAVYYCAAVYRRYGGSRYDYWGQGTQVTVSS | high polyreactivity |
| QVQLVESGGGIVQAGGSLRLSCAASGGIFDSYAMGWYRQAPGKERELVADITSGGSTNYADSVKGRFTISRDNAKNTVYLQMNSLKPEDTAVYYCAKEFYYSVGVNLGDSWGQGIQVTVSS | low polyreactivity |
| QVQLVESGGGIVQAGGSLRLSCAASGGIFDYNAMGWYRQAPGKERELVAAISGSDVSTYYADSVKGRFTISRDNAKNTVYLQMKSLKPEDTAVYYCAADAPWAYYEYDYWGQGTQVTVSS | low polyreactivity |
| QVQLVESGGGIVQAGGSLRLSCAASGIIFQTYAKGWYRQAPGKERELVAAISRSGGSTYYADSVKGRFTISRENSKNTVYLQMNSLKPEDTAVYYCAAYGYNVNWLKGIYWGQGTQVTVSS | high polyreactivity |
| QVQLVESGGGIVQAGGSLRLSCAASGIIFRAYAMGWSRQAPGKDRELVAAISWSGGSTYYADSVKGRFTISRDNAKNTVYLQMNSLKPEDTAVYYCAARRWKGYYYWGQGTQVNVSS | high polyreactivity |
| QVQLVESGGGIVQAGGSLRLSCAASGITFAFYDMGWYRQAPGTERELVAAISYSGGGTYYADSVKGRFTISRDNAKNTVYLQMNSLKPEDTAVYYCAADPKTHPLFGEDYWGQGTQVTVSS | low polyreactivity |
| QVQLVESGGGIVQAGGSLRLSCAASGITFGRNTMGWYRQAPGKERELVAAIDSGGNTYADSVKGRFTISRDNAKNTVYLQMNSLKPEDTAVYYCAVDGGEFSSYGYWGQGTQVTVSS | low polyreactivity |
| QVQLVESGGGIVQAGGSLRLSCAASGITFVAYDMGGYRQAPGKERELVAAITWNGDRTYYADSVKGRFTISRDNAKNTVYVEMNSLKPEDTAVYDCSAYHYYYEMDYWGQGTQVTVPS | high polyreactivity |
| QVQLVESGGGIVQAGGSLRLSCAASGITIQGYTMGWYRQEPGKERELVAAISSNGGRTYYADSVKGSFTISRDNAKNTVYLQMNSLKPEDTAVDYCAARKWRLIVDYWGEGTQVTVSS | high polyreactivity |
| QVQLVESGGGIVQAGGSLRLSCAASGLIFFTYAMGWYSQAPGKERELVAAITTGGSTNYADSVKGRFTISRDNAKKTVYLQMNSLKPEDTAVYYCAAQRVSVLLFVRHDYWGQGTQVTVSS | low polyreactivity |
| QVQLVESGGGIVQAGGSLRLSCAASGLIIQNNAMVWNRQAPGKERELVAAITSDGSTYADSVKGRFTISRDNAKNTVYLQMNSLKPEDTAVYYCNADGITSLPVPALDYWGQGTQVTVSS | low polyreactivity |
| QVQLVESGGGIVQAGGSLRLSCAASGMGWYRQAPGKERELVADITSRGGSTYYADSVKGRFTISRDNAKITVYLQMNSLKPEDTAVSYCAARKRVVQFDYWGQGTQVTVSS | low polyreactivity |
| QVQLVESGGGIVQAGGSLRLSCAASGNAMGWYRQAPGKERELVASINRSGGRTYYADSVKGRFTISRDNAKNTVYLQMNSLKPEDTAVYYCAARPHYDSDYWGQGTQVTVSS | low polyreactivity |
| QVQLVESGGGIVQAGGSLRLSCAASGNIFFWYDMGWYRQAPGKERELVATITSSGGSTYYADSVKGRFTISRDNAKNTVYLQMNSLKPEDTAVYYCNALPYYRDDYWGQGTQVTVSS | low polyreactivity |
| QVQLVESGGGIVQAGGSLRLSCAASGNIFHKNAMGWYRQAPGKERELVASISWSGGSTYYADSVKGRFTISRDNAKNTVYLQMNSLKPEDTAVYYCATDAFGYPGNRYALNDYWGQGTQVTVSS | low polyreactivity |
| QVQLVESGGGIVQAGGSLRLSCAASGNIFSYKAMGWYRQAPRTERELVDAISRSGGSTYYADSVKGRFTISRDNAKNTVYLQMNSLKPEDTAVYYCAADWRGRKYDYWGQGTQVTVSS | high polyreactivity |
| QVQLVESGGGIVQAGGSLRLSCAASGRIFAYYAMGWYRQAPGKERELVAAISTSGGSTYYADSVKGRFTISRDNAKNTVYLQMNSLKPEDTAVYYCAAEFGGGRSTNFDYWGQGTQVTVSS | low polyreactivity |
| QVQLVESGGGIVQAGGSLRLSCAASGRIFEWYAMGWYRQAPGKERELVAAITKTAGSTYYADSVKGRFTISRDNAKNTVYLQMNSLKPEDTAVYYCNAKTYHSRRKVLRFDYWGQGTQVTVSS | low polyreactivity |
| QVQLVESGGGIVQAGGSLRLSCAASGRIFGIYERGWLRQAPGKEREMVAGITRGDRTYADSVKGRFTISRDNAKNTVYLQMNSLKPVDTAVYYCNADVYPYKLALPAGMGYWGQGTQVTVSS | high polyreactivity |
| QVQLVESGGGIVQAGGSLRLSCAASGRIFYVNAMGWYRQSPGKERELVAAISRSGSSTYYADSVKGRFTISRDNAKNTVYLQMNSLKPEDTAVYYCAARYYGRSQHHFDYWGQGTQVTVSS | high polyreactivity |
| QVQLVESGGGIVQAGGSLRLSCAASGRIVRNYAMGWYRQAPGKERELVAGITRGGRTNYAHSVKGRFTISRDNAKNTVYLQMNSLKPEDTAVYYCNKVSSFGYYYWGQGTQVTVSS | high polyreactivity |
| QVQLVESGGGIVQAGGSLRLSCAASGRTFEQNVMRWYRQAPGKERELVAAITTGGSTNYADSVKGRFTISRDNAKNTVYLQMNSLKPEDTAVYYCAADRYLGGDYDYWGQGTQVTVSS | low polyreactivity |

| Sequence | polyreactivity (PSR sort gate) |
| --- | --- |
| QVQLVESGGGIVQAGGSLRLSCAASGRTFPGYAMGWSRQAPGKERELVATITFSDGSTYYADSVKGRFTISRDNAKNTVYLQMNSLKPEDTAVYYCNARRSYFLRYGVNYWGQGTQVTVSS | low polyreactivity |
| QVQLVESGGGIVQAGGSLRLSCAASGRTFPRYAMGWYRQAPGKERELVAAISVRAGITYYADSVKGRFTISRDNAKNTVYLQMNSLKPEDTAVYYCAKDHWTTSYDEGDYWGQGTQVTVSS | low polyreactivity |
| QVQLVESGGGIVQAGGSLRLSCAASGRTFQANAMGWYRQAPGKERELVAVISSRGTRTYYADSVKGRFTISRDNAKNTVYLQMNSLKPEDTAVYYCAARVPSVGNQSGYDYWGQGTQVTVSS | high polyreactivity |
| QVQLVESGGGIVQAGGSLRLSCAASGRTFVLNALGWYRQAPGKERELVAAITLGGGSTYADSVKGRFTISRDNAQNTVYLQMNSLKPEDTAVYYCAADFHYPDFEYWGQGTQVTVSS | low polyreactivity |
| QVQLVESGGGIVQAGGSLRLSCAASGRTFVSYAKGWYRQAPGKERELVAAISSSGGRTYYADSVKGRFTISRDNAKNTVYLQMNSLKPEDTAVYYCNAVRFISARYDYWGQGTQVTVSS | high polyreactivity |
| QVQLVESGGGIVQAGGSLRLSCAASGRTLDKYTMGWYRQAPGKERELVASITSGGSTNYADSVKGRFTISRDNAKNTVYLQMNSLKPEDTAVYYCNKRRRVSKLGQGYDYWGQGTQVTVSS | low polyreactivity |
| QVQLVESGGGIVQAGGSLRLSCAASGRTTSVYAIGWYRQAPGKERELVAAINRSDGGTYYADSVKGRFTISRDNAKNTVYLQMNRLQPEDTAVYYCNAVVLYGWYGRRYSSRLDYWGQGTQVTVSS | high polyreactivity |
| QVQLVESGGGIVQAGGSLRLSCAASGSIFGPYAMGWYRQAPGKERELVAAITWTGGRTYYADSVKGRFTISRDNAKNTVYLQMNSLKPEDTAVYYCAADYSPSTWYLYYTLYYYWGQGTQVTVSS | low polyreactivity |
| QVQLVESGGGIVQAGGSLRLSCAASGSIFHGYAMGWYRQAPGKERELVASITWNGGSTYYADSVKGRFTISRDNAKNTVYLQMNSLKPEDTAVYYCATSKWRGRGRTYDYWGQGTQVTVSS | high polyreactivity |
| QVQLVESGGGIVQAGGSLRLSCAASGSIFITYAMGWYRPAPGKERELVAAIRDSGDRTYYADSVKGRFTISRDNAKNTVYLQMNSLKPEDTAVYYCAARIWTGRGRKLGYGYVYWGQGTQVTVSS | low polyreactivity |
| QVQLVESGGGIVQAGGSLRLSCAASGSIFLGYTMGLYRQAPGKERELVAAINSSGGSTYYADSVKGRFTISRDNAKNTVYLQMNSLKPEDTAVYYCADANSILLFDSWGQGTQVTVSS | low polyreactivity |
| QVQLVESGGGIVQAGGSLRLSCAASGSIYGYAMGWYRQAPGKERELVAAISGRGGRTYYADSVKGRFTISRDNAKNTVYLQMNSLKPEDTAVYYCNVQWRYPYHYTVDYWGQGTQVTVSS | high polyreactivity |
| QVQLVESGGGIVQAGGSLRLSCAASGSNFTAYDMGWYRPAPGKDRELVAALNVSAGTTYYADSVKGRFTISRDHAKNTVYLQMNSLKPEDTAVYYCATYRSPTPYTRENIYAYWGQGTLVTVSS | low polyreactivity |
| QVQLVESGGGIVQAGGSLRLSCAASGSNFYANPMGWYRQAPGKERELVAAITRSGAGTYYADSVKGRFTISRDNAKNTVYLQMNSLKPEDTAVYDCAKRTKTPTGYDWGGYDYWGQGTQVTVSS | high polyreactivity |
| QVQLVESGGGIVQAGGSLRLSCAASGSTFDSYAMGWYGQAPGKERELVATISWTGSSTYYADSVKGRFTISRDNAKNTVYLQMNSLKPEDTAVYYCATDQYYEYDYWGQGTQVTVSS | low polyreactivity |
| QVQLVESGGGIVQAGGSLRLSCAASGSTFDSYAMGWYRQAPGKERELVATISWTGSSTYYADSVKGRFTISRDNAKNTVYLQMNSLKPADTAVYYCATDQYYEYDYWGQGTQVTVSS | low polyreactivity |
| QVQLVESGGGIVQAGGSLRLSCAASGSTFEANAMGWYRQARGKERELVAAISSGDRTNYADSVKGRFTISRDNAKNTVYLQLNSLKPEDNAVYFCAAPTDSYYEFDYWGQGTQGTVSS | low polyreactivity |
| QVQLVESGGGIVQAGGSLRLSCAASGSTFGTYAMGWYRQAPGKEMELVAAISNSGGSTYYADSVKGRFTISRDNAKNTVYLLMNSLKQEDTAVYYCNTDGLVRNGPFYSWGQGTQVTVSS | low polyreactivity |
| QVQLVESGGGIVQAGGSLRLSCAASGSTFPHNAMGWYRQAPGKERQLVAALSVGGGSTHYADSVKGRFTISRDNAKNTVYLQMNSLKPEDTAVYYCAKDYAYQYSFVTYDYWGQGTQVTVSS | low polyreactivity |
| QVQLVESGGGIVQAGGSLRLSCAASGSTFTWYAMGLYRQAPGKERELVADISYGGGSTYYADSVKGRFTISRDNSKNTVYLQMNSLKPEDTAVYYCTALGAKGYVKGFDYWGQGTQVTVSS | low polyreactivity |
| QVQLVESGGGIVQAGGSLRLSCAASGSTLVKYAMGWYRQAPGKERELVAAISWSGGRTYYADSVKGRFTISRDNAKNTVYLQMNSLKPEDTAVYYCAARRKAVRYDYWGQGTQVTVSS | high polyreactivity |
